Biological target: T1, APBA1_1, Q02410
T1 sequence (Q02410 651-752, limits assumed, looked up): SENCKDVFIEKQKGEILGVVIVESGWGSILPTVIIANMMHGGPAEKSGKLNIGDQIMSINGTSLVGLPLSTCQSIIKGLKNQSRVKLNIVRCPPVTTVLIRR
Assay: holdup assay
Design: key: below the threshold = too weak to quantify, mostly under pKd 3.1 to 4
Settings: modified: phospho on T at position -2 from the C-terminal residue

| Binder | pKd |
| --- | --- |
| RLQRRRETQV [HPV18-E6_-2P, P06463] | below the threshold |

Same assay, conditions: plain residues with an end cap or a label only (N-terminal biotin on a linker: ado-ado)

| Binder | pKd |
| --- | --- |
| QKNRKAQEDL [CES3, Q6UWW8] | below the threshold |
| PKRSFIESNV [TANC1, Q9C0D5] | below the threshold |
| DDEDRLVIEI [ZNF831, Q5JPB2] | below the threshold |
| QMNQTLPVQV [EPHB3, P54753] | below the threshold |
| IPLDGETEEL [MYOZ1, Q9NP98] | below the threshold |
| RHGSCVETSL [TMEM151B, Q8IW70] | below the threshold |
| QSLNRMEYIV [JAG1, P78504] | below the threshold |
| GNSVLKSTQF [SLC22A12, Q96S37] | below the threshold |
| VRNLPESEEL [MYOZ3, Q8TDC0] | below the threshold |
| LPHGHSTTRV [NLGN4X, Q8N0W4] | below the threshold |
| YYKRPVQEWV [MMP24, Q9Y5R2] | 3.48 |
| SKSNFGSEPL [KIF17, Q9P2E2] | below the threshold |
| DTTVPESEDL [MYOZ2, Q9NPC6] | below the threshold |
| PDGQCTVTEV [RNF146, Q9NTX7] | below the threshold |
| SAKVRTVTSV [RASL11B, Q9BPW5] | below the threshold |
| NHSSSPETTA [TRMT13, Q9NUP7] | below the threshold |
| PAPSSGKDYV [CLDN1, O95832] | below the threshold |
| EVEEFPETSV [TRPV3, Q8NET8] | below the threshold |
| VYPNAKVELV [PDLIM4_iso2, P50479;P50479-1] | below the threshold |
| QGLAERISVL [PRKD2, Q9BZL6] | below the threshold |

| Binder | pKd |
| --- | --- |
| LPHPHSTTRV [NLGN2, Q8NFZ4] | below the threshold |
| PRISRSQSEL [CCDC134, Q9H6E4] | below the threshold |
| QPCFNKLFPL [LPXN, O60711] | below the threshold |
| SSALYGESDL [ACTN2, P35609] | below the threshold |
| GQEEQVTTRL [TRPC5, Q9UL62] | below the threshold |
| NLSIEKETKL [ASNSD1, Q9NWL6] | below the threshold |
| SKENVQETQI [LRRC4B, Q9NT99] | 3.48 |
| EVNETDDTKM [KCNJ1, P48048] | below the threshold |
| VNKSKLLTDV [KCNA1, Q09470] | below the threshold |
| TPPAAKKSRI [BAZ1A, Q9NRL2] | below the threshold |
| LSEFKAMDSI [CTNNA1, P35221] | below the threshold |
| VDSTVKVWTC [TRAF7, Q6Q0C0] | below the threshold |
| QHKTQLQTLI [BPIFA2, Q96DR5] | below the threshold |
| DDPSTAETVL [ABCA7, Q8IZY2] | below the threshold |
| YLEPVLSSEL [ATP2A2, P16615;P16615-3] | below the threshold |
| HLRARKSEWV [GJD4, Q96KN9] | below the threshold |
| PEYLGLDVPV [ERBB2, P04626] | below the threshold |
| AKPSRISTVV [IQSEC2, Q5JU85] | below the threshold |
| TSQESEDTYL [TBC1D10A, Q9BXI6] | below the threshold |

Biological target: T2, GRIP1_2, Q9Y3R0
T2 sequence (Q9Y3R0 145-248, limits assumed, looked up): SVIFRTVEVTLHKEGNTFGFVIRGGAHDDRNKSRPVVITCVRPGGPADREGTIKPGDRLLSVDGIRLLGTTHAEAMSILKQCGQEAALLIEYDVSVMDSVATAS
Assay: holdup assay
Design: key: below the threshold = too weak to quantify, mostly under pKd 3.1 to 4
Settings: modified: phospho on T at position -2 from the C-terminal residue

| Binder | pKd |
| --- | --- |
| RLQRRRETQV [HPV18-E6_-2P, P06463] | below the threshold |

Same assay, conditions: plain residues with an end cap or a label only (N-terminal biotin on a linker: ado-ado)

| Binder | pKd |
| --- | --- |
| QKNRKAQEDL [CES3, Q6UWW8] | below the threshold |
| PKRSFIESNV [TANC1, Q9C0D5] | below the threshold |
| DDEDRLVIEI [ZNF831, Q5JPB2] | below the threshold |
| QMNQTLPVQV [EPHB3, P54753] | 3.58 |
| IPLDGETEEL [MYOZ1, Q9NP98] | below the threshold |
| RHGSCVETSL [TMEM151B, Q8IW70] | below the threshold |
| QSLNRMEYIV [JAG1, P78504] | below the threshold |
| GNSVLKSTQF [SLC22A12, Q96S37] | below the threshold |
| VRNLPESEEL [MYOZ3, Q8TDC0] | below the threshold |
| LPHGHSTTRV [NLGN4X, Q8N0W4] | below the threshold |
| YYKRPVQEWV [MMP24, Q9Y5R2] | below the threshold |
| SKSNFGSEPL [KIF17, Q9P2E2] | below the threshold |
| DTTVPESEDL [MYOZ2, Q9NPC6] | below the threshold |
| PDGQCTVTEV [RNF146, Q9NTX7] | below the threshold |
| SAKVRTVTSV [RASL11B, Q9BPW5] | below the threshold |
| NHSSSPETTA [TRMT13, Q9NUP7] | below the threshold |
| PAPSSGKDYV [CLDN1, O95832] | below the threshold |
| EVEEFPETSV [TRPV3, Q8NET8] | 3.59 |
| VYPNAKVELV [PDLIM4_iso2, P50479;P50479-1] | below the threshold |
| QGLAERISVL [PRKD2, Q9BZL6] | below the threshold |

| Binder | pKd |
| --- | --- |
| LPHPHSTTRV [NLGN2, Q8NFZ4] | below the threshold |
| PRISRSQSEL [CCDC134, Q9H6E4] | below the threshold |
| QPCFNKLFPL [LPXN, O60711] | below the threshold |
| SSALYGESDL [ACTN2, P35609] | below the threshold |
| GQEEQVTTRL [TRPC5, Q9UL62] | below the threshold |
| NLSIEKETKL [ASNSD1, Q9NWL6] | below the threshold |
| SKENVQETQI [LRRC4B, Q9NT99] | below the threshold |
| EVNETDDTKM [KCNJ1, P48048] | below the threshold |
| VNKSKLLTDV [KCNA1, Q09470] | below the threshold |
| TPPAAKKSRI [BAZ1A, Q9NRL2] | below the threshold |
| LSEFKAMDSI [CTNNA1, P35221] | below the threshold |
| VDSTVKVWTC [TRAF7, Q6Q0C0] | below the threshold |
| QHKTQLQTLI [BPIFA2, Q96DR5] | below the threshold |
| DDPSTAETVL [ABCA7, Q8IZY2] | below the threshold |
| YLEPVLSSEL [ATP2A2, P16615;P16615-3] | below the threshold |
| HLRARKSEWV [GJD4, Q96KN9] | below the threshold |
| PEYLGLDVPV [ERBB2, P04626] | below the threshold |
| AKPSRISTVV [IQSEC2, Q5JU85] | below the threshold |
| TSQESEDTYL [TBC1D10A, Q9BXI6] | below the threshold |

Source: paper PMC9482650, “Quantitative fragmentomics allow affinity mapping of interactomes” (Nature Communications, 2022)
